Laboratory results taken from publication PMC3223260 (Biochimica et biophysica acta, 2011).

B1: MRPS36 (natural protein, UniProt P82908 1-103, looked up)
chain: MMGSKMASASRVVQVVKPHTPLIRFPDRRDNPKPNVSEVLRSAGLPSHTSSISQHSKGSKSPDWLMHQGPPDTAEMIKTLPQKYRRKLVSQEEIEFIQRGGPE
B2: MRPS32 (natural protein, UniProt P82927 33-142, looked up)
chain: KSTYSSLPDDYNCKVELALTSDARTIVCYHPSVDIPYEHTKPIPRPDPVHNNEETHDLVLKTRLEEKSEHLEQGPMIEQLSKMFFTTKHRWYPRGQYHRRRRKLNPPKDR
B3: C-domain with the linker region of IF3mt (IF3mt(C+L)) (domain or fragment, human, UniProt Q9H2K0 131-278, looked up)
chain: MTGLQILQERQRLREMEKANPKTGPTLRKELILSSNIGQHDLDTKTKQIQQWIKKKHLVQITIKKGKNVDVSENEMEEIFHQILQTMPGIATFSSRPQAVQGGKALMCVLRAFSKNEEKAYKETQETQERDTLNKDHGNDKESNVLHQ
B4: IF3mt lacking the N- and C-terminal extensions (IF3mtΔNC) (domain or fragment, human, UniProt Q9H2K0 61-245, looked up)
chain: TQNEGKKTKKNKTAFSNVGRKISQRVIHLFDEKGNDLGNMHRANVIRLMDERDLRLVQRNTSTEPAEYQLMTGLQILQERQRLREMEKANPKTGPTLRKELILSSNIGQHDLDTKTKQIQQWIKKKHLVQITIKKGKNVDVSENEMEEIFHQILQTMPGIATFSSRPQAVQGGKALMCVLRAFSK

What was measured:
Experiment in all cases: cross-linking
[1] = biological target: Full length mature human mitochondrial translational initiation factor 3 (IF3mt) (human, UniProt Q9H2K0 32-278)
[2] = biological target: B3
[3] = biological target: B4
PTCD3 = PTCD3 (bovine (endogenous in bovine …, UniProt Q2KI62 38-688))
MRPS29 = MRPS29 (bovine (endogenous in bovine …, UniProt P82922 18-397))
MRPS18-2 = MRPS18-2 (bovine (endogenous in bovine …, UniProt P82918 36-258))

PTCD3 (bovine, sequence (Q2KI62 38-688): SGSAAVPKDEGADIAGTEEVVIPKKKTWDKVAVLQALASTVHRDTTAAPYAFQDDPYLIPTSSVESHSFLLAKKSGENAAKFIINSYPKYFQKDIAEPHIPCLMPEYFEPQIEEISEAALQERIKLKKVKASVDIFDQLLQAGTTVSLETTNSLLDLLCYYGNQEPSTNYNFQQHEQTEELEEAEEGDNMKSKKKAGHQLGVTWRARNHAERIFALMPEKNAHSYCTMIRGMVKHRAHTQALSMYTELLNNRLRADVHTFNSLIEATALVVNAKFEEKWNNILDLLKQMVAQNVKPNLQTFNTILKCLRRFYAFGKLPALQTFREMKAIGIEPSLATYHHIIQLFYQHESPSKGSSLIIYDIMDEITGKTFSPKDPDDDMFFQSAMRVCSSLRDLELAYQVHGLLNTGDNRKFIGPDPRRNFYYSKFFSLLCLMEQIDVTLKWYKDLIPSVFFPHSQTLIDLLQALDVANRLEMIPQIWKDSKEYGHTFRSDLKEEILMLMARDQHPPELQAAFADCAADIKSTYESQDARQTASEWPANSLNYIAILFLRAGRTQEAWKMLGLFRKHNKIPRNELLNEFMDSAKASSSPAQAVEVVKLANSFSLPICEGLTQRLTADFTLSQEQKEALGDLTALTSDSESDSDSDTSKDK

B1
binding result [1]: binds
binding result [2]: binds

B2
binding result [1]: binds
binding result [3]: binds
binding result [2]: binds

B3
binding result (PTCD3): binds
binding result (MRPS29): binds

B4
binding result (PTCD3): binds
binding result (MRPS18-2): binds
binding result (MRPS29): binds
